Substitutions are numbered along the chain they refer to.
B1: CSTB G4 in dsDNA (mixed)
DNA 1: CCTGAAGCAGACAGCTAGTGAATTCGGGGCGGGGCGCGGGGCGGGGTACTTGCGTATAACTGTTCCATAGT
DNA 2: ACTATGGAACAGTTATACGCAAGTATTTTTTTTTTTTTTTTTTTTTGAATTCACTAGCTGTCTGCTTCAGG
B2: MYC G4 in dsDNA (mixed)
DNA 1: CCTGAAGCAGACAGCTAGTGAATTCGGGTGGGGAGGGTGGGGTACTTGCGTATAACTGTTCCATAGT
DNA 2: B1 DNA 2
B3: T1B1 G4 in dsDNA (mixed)
DNA 1: CCTGAAGCAGACAGCTAGTGAATTCGTGGTGGGTGGGTGGGTACTTGCGTATAACTGTTCCATAGT
DNA 2: B1 DNA 2
B4: non-G4 dsDNA (dsDNA)
DNA 1: CCTGAAGCAGACAGCTAGTGAATTCAAAAAAAAAAAAAAAAAAAAATACTTGCGTATAACTGTTCCATAGT
DNA 2: B1 DNA 2
B5: Tel G4 in dsDNA (mixed)
DNA 1: CCTGAAGCAGACAGCTAGTGAATTCGGGTTAGGGTTAGGGTTAGGGTACTTGCGTATAACTGTTCCATAGT
DNA 2: B1 DNA 2
B6: C9orf72 G4 in dsDNA (mixed)
DNA 1: CCTGAAGCAGACAGCTAGTGAATTCGGGGCCGGGGCCGGGGCCGGGGTACTTGCGTATAACTGTTCCATAGT
DNA 2: B1 DNA 2
B7: MYOG in dsDNA (no G4 formed) (mixed)
DNA 1: CCTGAAGCAGACAGCTAGTGAATTCGGGTGGGCTGGGAGGTACTTGCGTATAACTGTTCCATAGT
DNA 2: B1 DNA 2
B8: PDGFRB G4 in dsDNA (mixed)
DNA 1: B7 DNA 1 with T29G, T34G, G36C, A38G
DNA 2: B1 DNA 2
B9: BCL-2 G4 in dsDNA (mixed)
DNA 1: CCTGAAGCAGACAGCTAGTGAATTCGGGCGCGGGAGGAAGGGGGCGGGTACTTGCGTATAACTGTTCCATAGT
DNA 2: B1 DNA 2
B10: B4-dx2 G4 in dsDNA (mixed)
DNA 1: CCTGAAGCAGACAGCTAGTGAATTCGGATCTGAGAATCAGATGTGGGTGGGTGGGTACTTGCGTATAACTGTTCCATAGT
DNA 2: B1 DNA 2
B11: T4B1 G4 in dsDNA (mixed)
DNA 1: CCTGAAGCAGACAGCTAGTGAATTCGTTTTGGTGGGTGGGTGGGTACTTGCGTATAACTGTTCCATAGT
DNA 2: B1 DNA 2
B12: C-Kit G4 in dsDNA (mixed)
DNA 1: B11 DNA 1 with T27G, T28G, T29C, T30G, T33C, G35C, T37A, T41A
DNA 2: B1 DNA 2

Target: Human DNA topoisomerase 1 (Top1) (Homo sapiens, UniProt P11387 1-765)
Sequence (P11387 whole entry): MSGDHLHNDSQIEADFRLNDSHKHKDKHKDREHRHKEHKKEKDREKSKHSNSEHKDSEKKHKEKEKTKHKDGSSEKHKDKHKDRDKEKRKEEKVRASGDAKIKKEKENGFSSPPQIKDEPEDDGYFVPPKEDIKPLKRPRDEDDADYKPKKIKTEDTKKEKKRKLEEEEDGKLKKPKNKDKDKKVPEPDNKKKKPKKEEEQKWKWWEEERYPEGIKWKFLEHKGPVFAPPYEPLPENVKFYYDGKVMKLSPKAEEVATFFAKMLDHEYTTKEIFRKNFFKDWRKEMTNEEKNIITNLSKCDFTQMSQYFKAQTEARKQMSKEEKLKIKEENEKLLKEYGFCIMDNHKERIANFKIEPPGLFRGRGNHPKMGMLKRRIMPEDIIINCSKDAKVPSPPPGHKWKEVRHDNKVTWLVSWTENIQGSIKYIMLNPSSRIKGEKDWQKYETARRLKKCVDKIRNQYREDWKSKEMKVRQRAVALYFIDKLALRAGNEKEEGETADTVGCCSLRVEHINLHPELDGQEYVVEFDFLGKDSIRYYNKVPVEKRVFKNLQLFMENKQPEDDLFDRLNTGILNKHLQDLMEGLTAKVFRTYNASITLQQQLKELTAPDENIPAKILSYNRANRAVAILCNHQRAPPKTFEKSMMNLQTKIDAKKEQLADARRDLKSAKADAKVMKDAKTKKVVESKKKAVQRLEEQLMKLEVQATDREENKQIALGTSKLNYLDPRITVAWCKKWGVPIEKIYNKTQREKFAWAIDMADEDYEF
Assay: EMSA

| Binder | binding result |
| --- | --- |
| B1 | binds |
| B2 | binds |
| B3 | binds |
| B4 | no binding |
| B5 | binds |
| B6 | binds |
| B7 | no binding |
| B8 | binds |
| B9 | binds |
| B10 | binds |
| B11 | binds |
| B12 | binds |
